Assay [1] deals with dissociated rat P5-9 CGN cultures. Description: Cerebellar granule neuron (CGN) neurite outgrowth assay. Type of assay: cell-based. The conditions noted are these: P7 rat CGNs. As to the method: Nitric acid-treated, 15-mm round German glass coverslips are coated with P-Orn in pH 6-8.5 borate buffer (at approximately 50 μg/ml) for about 1 hr at 37° C. and 5% CO2. CSPGs (at approximately 1 μg/ml) or polysaccharides enriched in the CS-A, CS-C, or CS-E sulfation motifs (at approximately 1 μg/ml) are coated on the P-Orn-coated coverslips overnight at 37° C. and 5% CO2. Cerebella from P5-9 Sprague Dawley rats are dissected, purified as described above, and cultured on the coated coverslips at a cell density of about 200 cells/mm^2. Neurons are grown in DMEM/F12, 1% FBS, and N1 supplement for about 24 hr.
In one example, inhibitors against MEK (PD98059, 25 μM; Calbiochem), EGFR (AG1478, 15 nM; Calbiochem), ROCK (Y27632, 5 μM; Calbiochem) and JNK (JNK Inhibitor II, 10 μM; Calbiochem) are added in solution at the start of culturing, and neurons are grown for 24 hr. For neurite outgrowth experiments from p75 knockout mice, cerebella from P5-7 mice, either C57BL/6 wild-type or p75−/− knockout mice, are dissected and purified as described above. Neurons are plated at a density of 200-300 cells/mm2 and cultured for about 24 hr. Cells are then fixed in 4% PFA/10% sucrose, immunostained with neuronal specific anti-class III β-tubulin antibody (TUJ1; Covance), and evaluated for neurite outgrowth. Neurons are imaged using a Nikon TE2000-S fluorescent microscope and quantified using the NIH software Image J. Statistical analysis is performed using the one-way ANOVA; n=50-200 cells per experiment.
P7 rat CGNs are grown for 24 hours on CS-E (1 μg/ml) in the presence of the CS-E antibody (CS-E Ab; 10 μg/ml).

Assay [2] concerns Retinal ganglion cell axons. Briefly: Optic nerve regeneration assay. The conditions noted are these: counted at 125-μm intervals from the crush site.
Procedure: At 1-14 days post injury, mice are given an overdose of pentobarbital and are transcardially perfused with 4% PFA. Eyeballs still attached with the optic nerve are dissected and post-fixed in 4% PFA overnight. Following cryoprotection with 30% sucrose in PBS, tissues are embedded in O.C.T. and serial sectioned for 5-20 μm along the longitudinal direction of the nerve. For immunofluorescence labeling, the sections are washed with PBS, pre-incubated in a blocking buffer (approximately 1% BSA, 0.3%TX-100 in PBS) and followed by sequential incubations with primary antibodies, including mouse anti-CS-E (1:200), goat-anti-CTB (1:4000), or rabbit anti-IβIII-tubulin antibodies (Invitrogen). […] The retinal cryosections are mounted with Vectashield and visualized under a Nikon fluorescence microscope. To quantify the number of CTB-positive regenerating axons, the number of regenerating axons is counted at 125 μm stepwise from the crush site of the optic nerve. The total number of regenerating axons is estimated. To quantify the number of surviving retinal ganglion cells, the total number of βIII-tubulin positive cells is counted in at least 3 retinal sections per retina.
(1.7 mg/ml) antibody treatment placed around the crush site of the nerve are studied. […] The extent of axonal regrowth is assessed 2 weeks after injury.
Assay [3] can be described thus: Pull-down with biotinylated CS-E. Type of assay: binding. The following applies: COS-7 cell lysates, immunoblot. The text has this: Pull down assays can be useful for identifying proteins which bind to CS (e.g. CS-A, CS-C, or CS-E). Pull down assays can also be used for identifying agents that disrupt the binding between CS and a known binding partner. Full-length human p75 cDNA (amino acids 1-427; Open Biosystems) is ligated into a pcDNA3 vector (Invitrogen), modified to fuse an HA tag to the 5′ end of the insert. Human NgR (amino acids 27-473; imaGenes) is ligated into a modified pAPtag-5 vector (GenHunter) which fuses a secretion signal sequence and a c-myc tag to the 3′ end of the insert. COS-7 cells are transfected with either NgR-myc, p75-HA, or both using the Lipofectamine (Invitrogen) method. Cells are lysed about 2 days after transfection with 0.5-2% Triton X-100 in PBS containing a protease inhibitor mixture (Roche) by rocking for 15-90 min at 4° C. The lysates are clarified by centrifugation at 5-25,000 rpm for 1-30 min.
Biotin is attached to the free amino group of the residual core peptides of CS-C and CS-E polysaccharides (Seikagaku). […]
Biotinylated CS-C or CS-E (approximately 280 μg each) in 100-500 μl of PBS is added to streptavidin agarose resin (about 140 μl; Pierce) and incubated at room temperature for about 1 hr. […] NgR-myc and p75-HA are detected by immunoblotting with myc-tag (Cell Signaling) or HA-tag (Sigma) antibodies.
Background: A western blot detects proteins with antibodies after separation by electrophoresis.

Assay [4] can be described thus: Oligosaccharide microarray. Type of assay: binding. As to the method:
Ozonolysis of the anomeric allyl group and linkage of CS compounds 1-41,2 to 1,2-(bisaminooxy)ethane3 proceeds as follows: oligosaccharide (0.51 μmol) is dissolved in MeOH (500 μL) and cooled to −78° C. O3 is bubbled through the reaction until a blue color persists (1 min). The reaction is then purged with N2 until colorless, quenched with Ph3P beads (3 mg), and gradually warmed to rt over 12 h. The reaction is filtered and the product concentrated to afford the desired aldehyde as a white solid. The aldehyde (0.51 μmol) is then reacted for 14 h at rt with 1,2-(bisaminooxy)ethane hydrochloride (1.4 mg, 15 μmol) that has been dissolved in H2O (100 μL) and pH adjusted to 5.0 with 1 M NaOH. The resulting oxime product is purified using a SepPak C18 column (500 mg, H2O) and Sephadex G-10 (CS-E disaccharide, H2O) or Sephadex G-25 (tetrasaccharides, H2O) to afford a white solid in quantitative yield (0.51 μmol). CS-A aminooxy: ESI MS: m/z: calculated for C32H48N4Na3O31S2: 1117.1; found 1117.0. CS-C aminooxy: ESI MS: m/z: calculated for C32H48N4Na3O31S2: 1117.1; found 1117.0. CS-E aminooxy: ESI MS: m/z: calculated for C32H46N4Na5O37S4: 1321.0; found 1321.0. CS-E di amminooxy: ESI MS: m/z: calculated for C18H28N3Na2O20S2: 716.1; found 716.0. […]

Consider chondroitinaseABC, for which, in assay [1], the “inhibition of neurite outgrowth after digestion of CS-E polysaccharides” value is listed as “small extent of residual inhibition”. Also, the “number of regenerating axons compared with control IgG” value in assay [2] is recorded as “significantly more regenerating axons”.

B1: myc-NgR1: full-length myc-tagged human NgR expressed in COS-7 cells (protein, UniProt Q9BZR6 1-473, looked up)
chain: MKRASAGGSRLLAWVLWLQAWQVAAPCPGACVCYNEPKVTTSCPQQGLQAVPVGIPAASQRIFLHGNRISHVPAASFRACRNLTILWLHSNVLARIDAAAFTGLALLEQLDLSDNAQLRSVDPATFHGLGRLHTLHLDRCGLQELGPGLFRGLAALQYLYLQDNALQALPDDTFRDLGNLTHLFLHGNRISSVPERAFRGLHSLDRLLLHQNRVAHVHPHAFRDLGRLMTLYLFANNLSALPTEALAPLRALQYLRLNDNPWVCDCRARPLWAWLQKFRGSSSEVPCSLPQRLAGRDLKRLAANDLQGCAVATGPYHPIWTGRATDEEPLGLPKCCQPDAADKASVLEPGRPASAGNALKGRVPPGDSPPGNGSGPRHINDSPFGTLPGSAEPPLTAVRPEGSEPPGFPTSGPRRRPGCSRKNRTRSHCRLGQAGSGGGGTGDSEGSGALPSLTCSLTPLGLALVLWTVLGPC
modifications: full-length myc tag
notes: full-length myc-tagged human NgR expressed in COS-7 cells
Regarding B1, in assay [3], the “pull-down by CS-E” value was “Pull-down of full-length, native NgR by CS-E”.

B2: OMgp: oligodendrocyte myelin protein (OMgp) (protein, UniProt P23515 25-417, looked up)
Oligodendrocyte-myelin …: ICPLQCICTERHRHVDCSGRNLSTLPSGLQENIIHLNLSYNHFTDLHNQLTQYTNLRTLDISNNRLESLPAHLPRSLWNMSAANNNIKLLDKSDTAYQWNLKYLDVSKNMLEKVVLIKNTLRSLEVLNLSSNKLWTVPTNMPSKLHIVDLSNNSLTQILPGTLINLTNLTHLYLHNNKFTFIPDQSFDQLFQLQEITLYNNRWSCDHKQNITYLLKWMMETKAHVIGTPCSTQISSLKEHNMYPTPSGFTSSLFTVSGMQTVDTINSLSVVTQPKVTKIPKQYRTKETTFGATLSKDTTFTSTDKAFVPYPEDTSTETINSHEAAAATLTIHLQDGMVTNTSLTSSTKSSPTPMTLSITSGMPNNFSEMPQQSTTLNLWREETTTNVKTPLPS
With B2, the “binding to CS-E polysaccharides, oligosaccharide microarray” value in assay [4] is given as “bind to CS-E polysaccharides”.

B3: Full-length EphB3: full-length Ephrin receptor B3 (protein, UniProt P54753 1-998, looked up)
chain: MARARPPPPPSPPPGLLPLLPPLLLLPLLLLPAGCRALEETLMDTKWVTSELAWTSHPESGWEEVSGYDEAMNPIRTYQVCNVRESSQNNWLRTGFIWRRDVQRVYVELKFTVRDCNSIPNIPGSCKETFNLFYYEADSDVASASSPFWMENPYVKVDTIAPDESFSRLDAGRVNTKVRSFGPLSKAGFYLAFQDQGACMSLISVRAFYKKCASTTAGFALFPETLTGAEPTSLVIAPGTCIPNAVEVSVPLKLYCNGDGEWMVPVGACTCATGHEPAAKESQCRPCPPGSYKAKQGEGPCLPCPPNSRTTSPAASICTCHNNFYRADSDSADSACTTVPSPPRGVISNVNETSLILEWSEPRDLGGRDDLLYNVICKKCHGAGGASACSRCDDNVEFVPRQLGLTERRVHISHLLAHTRYTFEVQAVNGVSGKSPLPPRYAAVNITTNQAAPSEVPTLRLHSSSGSSLTLSWAPPERPNGVILDYEMKYFEKSEGIASTVTSQMNSVQLDGLRPDARYVVQVRARTVAGYGQYSRPAEFETTSERGSGAQQLQEQLPLIVGSATAGLVFVVAVVVIAIVCLRKQRHGSDSEYTEKLQQYIAPGMKVYIDPFTYEDPNEAVREFAKEIDVSCVKIEEVIGAGEFGEVCRGRLKQPGRREVFVAIKTLKVGYTERQRRDFLSEASIMGQFDHPNIIRLEGVVTKSRPVMILTEFMENCALDSFLRLNDGQFTVIQLVGMLRGIAAGMKYLSEMNYVHRDLAARNILVNSNLVCKVSDFGLSRFLEDDPSDPTYTSSLGGKIPIRWTAPEAIAYRKFTSASDVWSYGIVMWEVMSYGERPYWDMSNQDVINAVEQDYRLPPPMDCPTALHQLMLDCWVRDRNLRPKFSQIVNTLDKLIRNAASLKVIASAQSGMSQPLLDRTVPDYTTFTTVGDWLDAIKMGRYKESFVSAGFASFDLVAQMTAEDLLRIGVTLAGHQKKILSSIQDMRLQMNQTLPVQV
modifications: full-length
notes: full-length Ephrin receptor B3
Turning to B3, in assay [3], the “pull-down by CS-E” value was “is pulled down”.

The values above are taken from patent US20110020359A1, “METHODS AND COMPOSITIONS FOR TREATING NEURONAL DAMAGE OR DEGENERATION” (California Institute of Technology, priority 2009, published 2011).
